According to US20250186597A1 (BRIGHT PEAK THERAPEUTICS, published 2025):
Numbering of substitutions follows the chain as printed. Numbers in names are those of the source.

T1: IL-18R on HEK-Blue IL18R reporter cells (InvivoGen, #hkb-hmi118) (UniProt Q13478 19-541; O95256 20-599, limits assumed)
T1 sequence (looked up) 1: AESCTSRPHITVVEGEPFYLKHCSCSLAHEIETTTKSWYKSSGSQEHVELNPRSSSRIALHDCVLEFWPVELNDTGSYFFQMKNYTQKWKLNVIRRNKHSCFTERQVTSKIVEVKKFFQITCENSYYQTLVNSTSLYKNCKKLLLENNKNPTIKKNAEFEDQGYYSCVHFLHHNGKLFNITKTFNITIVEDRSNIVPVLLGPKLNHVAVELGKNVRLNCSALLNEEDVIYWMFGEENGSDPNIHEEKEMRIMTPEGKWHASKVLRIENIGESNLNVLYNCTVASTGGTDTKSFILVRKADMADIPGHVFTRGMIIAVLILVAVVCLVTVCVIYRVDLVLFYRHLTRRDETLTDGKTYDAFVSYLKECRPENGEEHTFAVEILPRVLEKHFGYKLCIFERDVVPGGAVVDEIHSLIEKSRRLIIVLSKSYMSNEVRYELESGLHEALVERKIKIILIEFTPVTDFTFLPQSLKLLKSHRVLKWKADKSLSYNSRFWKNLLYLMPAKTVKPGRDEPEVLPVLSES
T1 sequence (looked up) 2: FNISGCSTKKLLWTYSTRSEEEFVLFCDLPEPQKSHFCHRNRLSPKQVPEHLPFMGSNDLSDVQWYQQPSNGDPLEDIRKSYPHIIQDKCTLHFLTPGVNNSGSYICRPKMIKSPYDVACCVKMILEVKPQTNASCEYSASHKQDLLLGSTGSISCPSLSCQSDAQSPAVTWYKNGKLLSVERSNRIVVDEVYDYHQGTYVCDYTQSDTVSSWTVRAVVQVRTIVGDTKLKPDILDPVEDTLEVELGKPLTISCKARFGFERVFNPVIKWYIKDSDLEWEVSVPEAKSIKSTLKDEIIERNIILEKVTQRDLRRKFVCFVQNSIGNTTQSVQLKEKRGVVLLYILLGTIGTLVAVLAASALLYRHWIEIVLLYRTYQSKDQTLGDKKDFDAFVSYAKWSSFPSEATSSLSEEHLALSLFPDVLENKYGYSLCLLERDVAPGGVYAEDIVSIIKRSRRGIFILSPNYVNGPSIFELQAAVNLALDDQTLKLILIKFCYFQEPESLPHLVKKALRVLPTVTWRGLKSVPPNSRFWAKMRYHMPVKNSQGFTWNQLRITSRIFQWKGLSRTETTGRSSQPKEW

B1: IL-18 polypeptide C151 (V11I, D35A, C38A, K53A, C76A, C127A) (ligand)
chain: YFGKLESKLSIIRNLNDQVLFIDQGNRPLFEDMTASDARDNAPRTIFIISMYADSQPRGMAVTISVKCEKISTLSAENKIISFKEMNPPDNIKDTKSDIIFFQRSVPGHDNKMQFESSSYEGYFLAAEKERDLFKLILKKEDELGDRSIMFTVQNED
B2: IL-18 polypeptide C152 (V11I, S36A, C38A, K53A, C76A, C127A) (ligand)
chain: B1 chain with A35D, S36A
B3: IL-18 polypeptide C155 (V11I, C38A, D40A, K53A, C76A, C127A) (ligand)
chain: B1 chain with A35D, D40A
B4: IL-18 polypeptide of SEQ ID NO: 59 (E6K, C38A, K53A) (ligand)
chain: B1 chain with E6K, I11V, A35D, A76C, A127C
B5: IL-18 polypeptide C148 (F2A, V11I, C38A, K53A, C76A, C127A) (ligand)
chain: B1 chain with F2A, A35D
B6: IL-18 polypeptide C165 (V11I, C38A, S55R, C76A, C127A) (ligand)
chain: B1 chain with A35D, A53K, S55R
B7: IL-18 polypeptide C161 (K8R, V11I, C38A, C76A, Q103E, C127A) (ligand)
chain: B1 chain with K8R, A35D, A53K, Q103E
B8: IL-18 polypeptide C154 (V11I, E31A, D37A, C38A, K53A, C76A, C127A) (ligand)
chain: B1 chain with E31A, A35D, D37A
B9: IL-18 polypeptide C158 (V11I, C38A, K53A, C76A, G108A, C127A) (ligand)
chain: B1 chain with A35D, G108A
B10: IL-18 polypeptide C179 (E6K, K8E, V11I, C38A, K53A, T63A, C76A, Q103R, C127A) (ligand)
chain: B1 chain with E6K, K8E, A35D, T63A, Q103R
B11: IL-18 polypeptide C164 (V11I, C38A, S55H, C76A, C127A) (ligand)
chain: B1 chain with A35D, A53K, S55H
B12: IL-18 polypeptide C156 (V11I, C38A, N41A, K53A, C76A, C127A) (ligand)
chain: B1 chain with A35D, N41A
B13: IL-18 polypeptide of SEQ ID NO: 62 (E6K, C38A, K53A, C127A) (ligand)
chain: B1 chain with E6K, I11V, A35D, A76C
B14: IL-18 polypeptide C168 (V11I, C38A, C76A, S105K, C127A) (ligand)
chain: B1 chain with A35D, A53K, S105K
B15: IL-18 polypeptide C146 (SEQ ID NO: 68; V11I, C38A, M51G, K53A, C76A, C127A) (ligand)
chain: B1 chain with A35D, M51G
B16: IL-18 polypeptide C163 (V11I, C38A, C76A, Q103K, C127A) (ligand)
chain: B1 chain with A35D, A53K, Q103K
B17: IL-18 polypeptide C153 (V11I, D37A, C38A, K53A, C76A, C127A) (ligand)
chain: B1 chain with A35D, D37A
B18: IL-18 polypeptide of SEQ ID NO: 56 (E6K, K53A, C38S, C76S, C127S) (ligand)
chain: B1 chain with E6K, I11V, A35D, A38S, A76S, A127S
B19: IL-18 polypeptide C162 (K8E, V11I, C38A, C76A, Q103R, C127A) (ligand)
chain: B1 chain with K8E, A35D, A53K, Q103R
B20: IL-18 polypeptide C176 (E6K, V11I, C38A, I49M, K53A, T63A, C76A, C127A) (ligand)
chain: B1 chain with E6K, A35D, I49M, T63A
B21: IL-18 polypeptide C174 (K8L, E6K, V11I, C38A, K53A, T63A, C76A, C127A) (ligand)
chain: B1 chain with E6K, K8L, A35D, T63A
B22: IL-18 polypeptide C159 (V11I, C38A, K53A, C76A, H109A, C127A) (ligand)
chain: B1 chain with A35D, H109A
B23: IL-18 polypeptide C150 (V11I, T34A, C38A, K53A, C76A, C127A) (ligand)
chain: B1 chain with T34A, A35D

What follows are binders tested against T1, IL-18R on HEK-Blue IL18R reporter cells … (assay: cell-based or functional assay).

EC50, HEK-Blue IL18R reporter assay | Binder
13.1 pM | B1
0.25 pM | B2
0.52 pM | B3
0.268 pM | B4
7.28 pM | B5
1.91 pM | B6
2.01 pM | B7
11.9 pM | B8
15.6 pM | B9
0.4 pM | B10
3.14 pM | B11
11.7 pM | B12
0.17 pM | B13
7.73 pM | B14
0.8 pM | B15
1.5 pM | B16
14.1 pM | B17
3.73 pM | B18
2.3 pM | B19
0.07 pM | B20
0.29 pM | B21
19.5 pM | B22
0.7 pM | B23
